Data published in the supplement of paper PMC7125110.
± gives the standard error. Fewer inactive variants are shown than the library holds.

B1: glmS ribozyme (parent)
chain: AUAAAAGCGCCAGAACUACAGAAAUGUAGUUGACGAGGAGGAGGUUUAUCGAAUUUUCGGCGGAUGCCUCCAAA

Variants of: B1
Assay: self-cleavage kobs at 2500 uM GlcN6P; higher = faster cleavage; RNA array
Details: with glucosamine-6-phosphate
In short: (§1)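 In situ transcription by E. coli RNA polymerase produced barcoded ribozyme variants on sequenced MiSeq chips, and a hybridised Cy3 probe tracked them at 37 °C. Glucosamine-6-phosphate was flowed in at 40 μM to 10 mM in HEPES/KCl/Mg(OAc)2 buffer. kcat and KM were taken from weighted Michaelis–Menten fits of kobs values from exponential decay fits.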

| Variant | self-cleavage kobs at 2500 uM GlcN6P [s⁻¹] |
| --- | --- |
| AUAAAAGCGCCGGUACUACAGAAAUGUAGUUGACGAGGAGGAGGUUUAUCGAAUUUUCGGCGGGUGCCUCCAAA [A12G A14U A64G] | 0.000293 ± 7.2e-05 |
| AUAAAAGCGCCAGAACUACAGAAAUGUAGUUCACGAGGAGCACGUUUAUCGAAUUUUCGGAGGAUGCCUCCAAA [G32C G41C G43C C61A] | < 1e-05 |
| AUAAAAGCGCCAGAAUUACAGAAAUGUAGUCGACGAGGAGGAGGUUUAUCGACUUAUCGGCGGAUGCCUUCAAA [C16U U31C A53C U56A C70U] | 0.000183 ± 4.6e-05 |
| AUAAAAGCGCCAGAACUACAGAAAUGUAGUUGACGAGGAGGAGGUUUAUCGACUUUGCGGCGGAUGUCUCCAAA [A53C U57G C67U] | 8.03e-05 ± 2.5e-05 |
| AUAAAAGCGUCAGAACUACAGAAAUGUAGUUGACGAGGAGGAGGUUUAUCGAAUUUUCGCCUGAUGCCUCCAAA [C10U G60C G62U] | < 1e-05 |
| AUAAAAGAGCCAGAACUACAGAAAUGUAUUUUACGAGGAGGAGGUUUAUCGAAUUUUCGGCGGAUGCCUCCAAA [C8A G29U G32U] | < 1e-05 |
| AUAAAAGCGCCAUAACUACAGAAAUGUAGUUGACGAUGAGGAGGUUUAUCGAAUGUUCGGCGGAUUCCUCCAAA [G13U G37U U55G G66U] | < 1e-05 |
| AUAAAAGCGGCAGAACUACAGAAAUGUAGUUGACGAGGAGGUGGUUUAUCGAAUUUUCGGCCGAUGCCUCCAAA [C10G A42U G62C] | < 1e-05 |
| AUAAAAGCGCCGGAACUACAGAAAUGUAGUUCACGAGGAGGAGGUUUAUCGAAUUUUCGGCGGAUGCCUCCAAA [A12G G32C] | 2.23e-05 ± 9.3e-06 |
| AUAAAAGCCCCAGAACUACAGAAAUGUAGUUGACGAGGAGGAGGUUUAUGGAAUAUGCGGCGGAUGCCUUCAAA [G9C C50G U55A U57G C70U] | 0.000283 ± 0.0001 |
| AUAAAAGCGCCAGAACUACAGAAAUGUAGUUGACGAGGAGGGGGUUUUUCGGAUUUUCGGCGGAUGCCUACAAA [A42G A48U A52G C70A] | < 1e-05 |
| AUAAAAGGGCCAGAACUACAGAAAUGUAGUUGACGAGGAGGAGGUUUAUCCAAGUUUCGGCGGAUGCCUCCAAA [C8G G51C U54G] | < 1e-05 |
| AUAAAAGCGCCAGAACUACAGAAAUGUAGUUGACGAGGCGGAGGUUUAUCGAAACUUCGGCGGAUGCCUCCAAA [A39C U54A U55C] | 0.00249 ± 0.00052 |
| AUAAAAGCGCGAGAACUACAGAAAUGUACUUGACGGGGAGGAGGUUUAUCGAAUUUUCGGCGGAUGCCGCCAAA [C11G G29C A36G U69G] | 0.001 ± 0.00046 |
| AUAAAAGCGGAAGAACUACAGAAAUGUAGCUGACGCUGAGGAGGUUUAUCGAAUUUUCGGCGGAUGCCUAUAAA [C10G C11A U30C A36C G37U C70A C71U] | 8.35e-05 ± 3.8e-05 |
| AUAAAAGCGCCAGAGCUACAGAAAUGUAGUUGACGAGGCGGAGGAUUAUCGAAUUCUCGGCGGAUGCCUCCAAA [A15G A39C U45A U56C] | 0.000239 ± 5.6e-05 |
| AUAAAAGCGCCUGAACUACAGAAAUGUAGUCGACGAGGAGGAGUUUUAUCGAAUUUUCGGCGGAUGACUCCAAA [A12U U31C G44U C67A] | 0.00303 ± 0.001 |

| Variant | self-cleavage kobs at 2500 uM GlcN6P [s⁻¹] |
| --- | --- |
| AUAAAAGCGACAGAACUACAGAAAUGUAGUUGACGAGGAGAACGUUUAUCGAAUUUUCGGCGGAUGCCUCCAAA [C10A G41A G43C] | < 1e-05 |
| AUAAAAGCGCCAGAACUACAGAAAUGUAGCUGACGAGGAGGAGGUUUAUCGAUUUUUCGGCGGAUUCCGCCAAA [U30C A53U G66U U69G] | 0.000128 ± 2.7e-05 |
| AUAAAAGCGGCAGAACUACAGAAAUGUAGUUGACGAGGAGGAGGUUUAUGGAAUAUUCGGCGGAUGCCUCCAAA [C10G C50G U55A] | 6.66e-05 ± 2.3e-05 |
| AUAAAACCGCCAGGACUACAGAAAUGUAGUUGACGAGGAGGAAGUACAUCGAAUUUUCGUCGGAUGCCUCCAAA [G7C A14G G43A U46A U47C G60U] | < 1e-05 |
| AUAAAAGCGCCAGAACUACAGAAAUGUAGUUGAUGAGGAGGAGGUUUAUCGAAUUUUUGACGGAUGCCUCCAAA [C34U C58U G60A] | < 1e-05 |
| AUAAAAUCGUCAGAACUACAGAAAUGUAGUUGACGUGGAGGAGUUUUAUCGAAAUUUCGGCGGAUGCCUCCAAA [G7U C10U A36U G44U U54A] | < 1e-05 |
| AUAAAAGUGCCAGAAUUACAGAAAUGUAGUUGACGAGGAGGAGGUUUAUCGAAUUUUCGCCGGAUGCCUCGAAA [C8U C16U G60C C71G] | < 1e-05 |
| AUAAAAGCGUCAGAACUACAGAAAUGUAGUUGACGAGGAGGAGGUUUAUCGAGUUUUCGGAGGAUGGCUCCAAA [C10U A53G C61A C67G] | 8.38e-05 ± 4.1e-05 |
| AUAAAAGCGCCAGAACUACAGAAAUGUACUCGACGAGGAGGAGGUUUAUCGAAUUUUCGGCGGAUGCCUACAAA [G29C U31C C70A] | 7.34e-05 ± 3.4e-05 |
| AUAAAAGCGCCAGAACUACAGAAAUGUAGUAGACGAGGUGGAGGUUUAUCGAAUUUUCGGCGGAUGCCUUCAAA [U31A A39U C70U] | 0.00182 ± 0.0009 |
| AUAAAAGCACCAGAACUACAGAAAUGUAGUUGACGAGGAUGAGGUUUAUCGAAUUUUCGGCUGUUGCCUCCAAA [G9A G40U G62U A64U] | < 1e-05 |
| AUAAAGGCGCCAGAACUACAGAAAUGUAAUUGACGAGGAGGAGGUUUAUGGAAUUUUCGGCGGAUGCCUCCAAA [A6G G29A C50G] | 0.000103 ± 3.9e-05 |
| AUAAAAGCGCCAGAACUACAGAAAUGUAGUUGAGGACGAGGAGGUUUAUCGAAUUUUCGUCGCAUGCCUCCAAA [C34G G37C G60U G63C] | < 1e-05 |
| AUAAAAGCGCCAGAACUACAGAAAUGUAGUUGCCGAGGGUGAGGUUUAACGAAUUUUCGGCGGAUGCCUCCAAA [A33C A39G G40U U49A] | < 1e-05 |
| AUAAAAGCGCCAGUACUACAGAAAUGUAGUUGACGAGGAGGAGGUCGAUCGAAUUUUCGGCGGAUGCCUCCAAA [A14U U46C U47G] | 8.01e-05 ± 2.2e-05 |
| AUAAACGCGCCAGAACUACAGAAAUGUAGUUGACGAGGAGGAGGUCUACCGAAUUUUCGGCGAAUGCCUCCAAA [A6C U46C U49C G63A] | < 1e-05 |
| AUAAAAGAGCCAGAACUACAGAAAUGUAGUUUACGAGGAGGUGGUUUGUCCAAUUUUCGGCGGAUGCCUCCAAA [C8A G32U A42U A48G G51C] | < 1e-05 |

Variants of: B1
Assay: self-cleavage kobs at 10000 uM GlcN6P; higher = faster cleavage; RNA array
Details: with glucosamine-6-phosphate
In short: as §1

| Variant | self-cleavage kobs at 10000 uM GlcN6P [s⁻¹] |
| --- | --- |
| AUAAAAGCGCCAGAAUUACAGAAAUGUAGUCGACGAGGAGGAGGUUUAUCGACUUAUCGGCGGAUGCCUUCAAA [C16U U31C A53C U56A C70U] | 0.000335 ± 8.2e-05 |
| AUAAAAGCGCCGGAACUACAGAAAUGUAGUUCACGAGGAGGAGGUUUAUCGAAUUUUCGGCGGAUGCCUCCAAA [A12G G32C] | 3.88e-05 ± 7.6e-06 |
| AUAAAAGCCCCAGAACUACAGAAAUGUAGUUGACGAGGAGGAGGUUUAUGGAAUAUGCGGCGGAUGCCUUCAAA [G9C C50G U55A U57G C70U] | 0.000426 ± 0.00018 |
